# In IntAct's records for PubMed 22615398:
# B1: Geminin (Homo sapiens), O75496 (parent)
# chain: MNPSMKQKQEEIKENIKNSSVPRRTLKMIQPSASGSLVGRENELSAGLSKRKHRNDHLTSTTSSPGVIVPESSENKNLGGVTQESFDLMIKENPSSQYWKEVAEKRRKALYEALKENEKLHKEIEQKDNEIARLKKENKELAEVAEHVQYMAELIERLNGEPLDNFESLDNQEFDSEEETVEDSLVEDSEIGTCAEGTVSSSTDAKPCI
# Variants of: B1
# Conditions: with hxc9_human HOXC9, P31274
# Chain of hxc9_human HOXC9, P31274 (P31274 whole entry): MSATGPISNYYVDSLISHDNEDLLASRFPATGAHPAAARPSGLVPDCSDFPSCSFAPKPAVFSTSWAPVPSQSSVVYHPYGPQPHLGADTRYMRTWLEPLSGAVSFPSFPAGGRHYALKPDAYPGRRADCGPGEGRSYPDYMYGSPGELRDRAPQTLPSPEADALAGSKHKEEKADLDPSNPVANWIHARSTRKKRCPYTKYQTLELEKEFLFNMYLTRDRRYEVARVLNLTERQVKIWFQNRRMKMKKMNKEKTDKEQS
row,Variant,effect of a mutation on the interaction
1,V186A;E187Q;D188N,decreasing interaction strength
2,E177Q;E178Q;E179Q,decreasing interaction strength
3,V181A;E182Q;D183N,decreasing interaction strength
4,E177Q;E178Q;E179Q;E182Q;E187Q;D188N,decreasing interaction strength
5,S184E,increasing interaction strength
